Measurements: patent publication US20230279088A1 (NATIONAL RESEARCH COUNCIL OF CANADA, published 2023)

Biological target: T1, Aβ1-42 oligomers (Aβ1-42 preparation consisting predominantly of higher oligomers) (UniProt P05067 672-713)
T1 construct: domain: Aβ1-42; Oligomeric aggregate; also called Aβ oligomers; Aβ-oligomer
Assay: ELISA: ABP immobilized on the plate, exposed to Aβ, bound Aβ detected with 6E10 or 4G8
Experimental: ELISA: Aβ-binding assays were carried out as described by Chakravarthy et al (2013). Maxisorp 96-well ELISA plates (Nunc) were coated with (100-500 ng/well) either free ABP (synthetic) or various FC5-ABP constructs overnight at 4° C. in PBS. The wells were blocked with 1% BSA in TBS-T for 30 min and then incubated with Af31-42 preparations consisting predominantly of either monomer and dimers (Mo) or higher oligomers (010 in TBS-T at RT for 45 min with gentle agitation. Following three TBS-T washes, bound Aβ was detected by incubating HRP-conjugated Aβ-specific antibody (6E10 or 4G8) for 90 min at RT in TBS-T. The bound antibody was detected with SureBlueTM TMB reagent kit (KPL) by colorimetric measurement at 450 nm according to manufacturer's instructions.
A Coomassie blue stained gel after separation of FC5 fusion molecules by SDS-PAGE (NR-non-reducing and R-reducing conditions) indicating successful production of recombinant fusion molecule is shown in FIG. 2A. Free or fused ABP was immobilized on ELISA plate by coating samples in phosphate buffered saline (PBS) overnight at 4° C. and exposed to Aβ preparations as described by Chakravarthy et al., 2013. Bound Aβ was detected with Aβ-specific antibody 6E10 or 4G8 (Chakravarthy et al., 2013). […] Bound Aβ was detected with specific antibody as above. […]

T1 sequence (P05067 672-713 limits assumed): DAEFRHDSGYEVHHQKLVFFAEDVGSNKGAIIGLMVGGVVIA

- binding result: binds
Binder: KTFKTRKASAQASLASKDKTPKSKSKKRNSTQLKSRVKNI (also called P4-5 peptide (ABP)) [free ABP (synthetic amyloid-binding peptide)]
